Measured values from patent US20050037012A1.
Substitutions are numbered along the chain they refer to. Values belong to the molecule of their own block, whether it stands above or below them.

Columns and labels:
Assay in all cases: cell-based or functional assay
[1] = target: human IL-28 receptor (IL-28 receptor alpha subunit with CRF2-4) on 293 HEK cells (human)
[2] = target: T1, mouse IL-28 (zcyto24) (mouse) (UniProt Q4VK74)
T1 sequence: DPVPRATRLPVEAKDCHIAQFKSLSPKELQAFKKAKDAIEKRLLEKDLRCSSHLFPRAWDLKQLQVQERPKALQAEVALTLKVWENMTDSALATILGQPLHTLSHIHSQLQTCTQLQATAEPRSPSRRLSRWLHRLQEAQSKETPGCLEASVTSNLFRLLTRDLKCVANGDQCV

[3] = target: human IL-29 (human) (UniProt Q8IU54)
[4] = target: T2, human IL-28A (human) (UniProt Q8IZJ0)
T2 sequence: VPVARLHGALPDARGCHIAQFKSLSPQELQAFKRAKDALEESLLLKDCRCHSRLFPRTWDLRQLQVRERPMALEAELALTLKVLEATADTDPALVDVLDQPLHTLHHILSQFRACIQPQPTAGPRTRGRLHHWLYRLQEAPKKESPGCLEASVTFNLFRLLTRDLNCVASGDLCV

human IL-29 (human), sequence (Q8IU54 20-200): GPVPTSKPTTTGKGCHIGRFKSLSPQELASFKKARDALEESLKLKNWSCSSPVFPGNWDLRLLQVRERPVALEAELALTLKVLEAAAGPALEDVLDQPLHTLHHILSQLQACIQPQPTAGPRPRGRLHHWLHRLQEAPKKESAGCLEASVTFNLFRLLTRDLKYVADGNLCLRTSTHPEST
human IL-28 receptor (IL-28 receptor alpha subunit with CRF2-4) on 293 HEK cells (human), sequence (Q8IU57 whole entry, chain 1 of 2): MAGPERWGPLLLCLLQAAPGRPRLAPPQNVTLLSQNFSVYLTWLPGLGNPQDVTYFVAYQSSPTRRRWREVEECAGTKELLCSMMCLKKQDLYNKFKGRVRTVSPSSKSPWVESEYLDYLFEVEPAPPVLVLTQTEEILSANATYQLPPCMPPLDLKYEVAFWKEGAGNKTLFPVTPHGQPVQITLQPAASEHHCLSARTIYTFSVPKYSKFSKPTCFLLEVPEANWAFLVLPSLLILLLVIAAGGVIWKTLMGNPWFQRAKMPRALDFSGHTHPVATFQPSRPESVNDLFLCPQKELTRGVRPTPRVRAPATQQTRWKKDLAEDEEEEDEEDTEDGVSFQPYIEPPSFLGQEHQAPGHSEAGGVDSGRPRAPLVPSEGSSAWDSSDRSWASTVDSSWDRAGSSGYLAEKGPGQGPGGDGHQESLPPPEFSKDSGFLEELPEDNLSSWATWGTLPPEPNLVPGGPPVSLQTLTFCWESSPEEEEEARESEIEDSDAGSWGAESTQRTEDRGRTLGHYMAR
human IL-28 receptor (IL-28 receptor alpha subunit with CRF2-4) on 293 HEK cells (human), sequence (Q08334 whole entry, chain 2 of 2, further chain): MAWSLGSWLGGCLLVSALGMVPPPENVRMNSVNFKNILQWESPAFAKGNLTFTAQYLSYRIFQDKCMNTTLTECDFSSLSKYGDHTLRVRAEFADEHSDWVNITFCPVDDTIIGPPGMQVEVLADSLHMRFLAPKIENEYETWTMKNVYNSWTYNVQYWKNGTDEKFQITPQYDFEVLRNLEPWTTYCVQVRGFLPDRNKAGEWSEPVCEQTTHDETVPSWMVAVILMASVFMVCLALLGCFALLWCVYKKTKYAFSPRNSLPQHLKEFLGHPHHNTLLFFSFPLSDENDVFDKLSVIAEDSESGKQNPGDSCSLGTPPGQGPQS

- ISRE-luciferase signaling, fold induction over medium alone; HuIL10 at 100 ng/ml; 293 cells transfected with ISRE-Luc. and IL-28R (fold induction) [1]: 0.5
Molecule: huIL10 (from UniProt P22301 19-178) (ligand)

- Percent Inhibition of Ligand-induced ISRE Signaling by Soluble Receptors; 10 ng/ml ligand, 10 micrograms/ml soluble receptor; 293 HEK cells overexpressing zcytor19 [2]: 82%
- Percent Inhibition of Ligand-induced ISRE Signaling by Soluble Receptors; 10 ng/ml ligand, 10 micrograms/ml soluble receptor; 293 HEK cells overexpressing zcytor19 [3]: 79%
- Percent Inhibition of Ligand-induced ISRE Signaling by Soluble Receptors; 10 ng/ml ligand, 10 micrograms/ml soluble receptor; 293 HEK cells overexpressing zcytor19 [4]: 80%
Molecule: human CRF2-4-Fc homodimer soluble receptor (Fc fusion)

- Percent Inhibition of Ligand-induced ISRE Signaling by Soluble Receptors; 10 ng/ml ligand, 10 micrograms/ml soluble receptor; 293 HEK cells overexpressing zcytor19 [2]: 47%
- Percent Inhibition of Ligand-induced ISRE Signaling by Soluble Receptors; 10 ng/ml ligand, 10 micrograms/ml soluble receptor; 293 HEK cells overexpressing zcytor19 [3]: 16%
- Percent Inhibition of Ligand-induced ISRE Signaling by Soluble Receptors; 10 ng/ml ligand, 10 micrograms/ml soluble receptor; 293 HEK cells overexpressing zcytor19 [4]: 16%
Molecule: human zcytor19-Fc/human CRF2-4-Fc heterodimer soluble receptor (Fc fusion)

- ISRE-luciferase signaling, fold induction over medium alone; Zcyto10 at 125 ng/ml; 293 cells transfected with ISRE-Luc. and IL-28R (fold induction) [1]: 1
Molecule: zcyto10 (from UniProt Q9NYY1 25-176) (ligand)

- ISRE-luciferase signaling, fold induction over medium alone; IL-28B at 125 ng/ml; 293 cells transfected with ISRE-Luc. and IL-28R (fold induction) [1]: 104
B1: human IL-28B (ligand)
chain: T2 sequence with H7R, R49K, H51R, M71V, V95G, F112L, Y135H

- Percent Inhibition of Ligand-induced ISRE Signaling by Soluble Receptors; 10 ng/ml ligand, 10 micrograms/ml soluble receptor; 293 HEK cells overexpressing zcytor19 [2]: 89%
- Percent Inhibition of Ligand-induced ISRE Signaling by Soluble Receptors; 10 ng/ml ligand, 10 micrograms/ml soluble receptor; 293 HEK cells overexpressing zcytor19 [3]: 103%
- Percent Inhibition of Ligand-induced ISRE Signaling by Soluble Receptors; 10 ng/ml ligand, 10 micrograms/ml soluble receptor; 293 HEK cells overexpressing zcytor19 [4]: 91%
B2: murine zcytor19-Ig homodimer soluble receptor (Fc fusion, mouse, UniProt Q8CGK5 21-227, looked up, not shown: a dimerising Fc or GST)
chain: RPRLAPPRNVTLFSQNFTVYLTWLPGLGSPPNVTYFVTYQSYIKTGWRPVEHCAGIKALVCPLMCLKKLNLYSKFKGRVQAASAHGRSPRVESRYLEYLFDVELAPPTLVLTQMEKILRVNATYQLPPCMPSLELKYQVEFWKEGLGSKTLFPDTPYGQPVQIPLQQGASRRHCLSARTVYTLIDIKYSQFSEPSCIFLEAPGDKRA

- Percent Inhibition of Ligand-induced ISRE Signaling by Soluble Receptors; 10 ng/ml ligand, 10 micrograms/ml soluble receptor; 293 HEK cells overexpressing zcytor19 [2]: 90%
- Percent Inhibition of Ligand-induced ISRE Signaling by Soluble Receptors; 10 ng/ml ligand, 10 micrograms/ml soluble receptor; 293 HEK cells overexpressing zcytor19 [3]: 45%
- Percent Inhibition of Ligand-induced ISRE Signaling by Soluble Receptors; 10 ng/ml ligand, 10 micrograms/ml soluble receptor; 293 HEK cells overexpressing zcytor19 [4]: 92%
B3: human zcytor19-Fc homodimer soluble receptor (Fc fusion, not shown: a dimerising Fc or GST)
chain: RPRLAPPQNVTLLSQNFSVYLTWLPGLGNPQDVTYFVAYQSSPTRRRWREVEECAGTKELLCSMMCLKKQDLYNKFKGRVRTVSPSSKSPWVESEYLDYLFEVEPAPPVLVLTQTEEILSANATYQLPPCMPPLDLKYEVAFWKEGAGNKTLFPVTPHGQPVQITLQPAASEHHCLSARTIYTFSVPKYSKFSKPTCFLLEVPEANWA
